Assay results taken from patent publication US20180021429A1, “ANTICANCER AGENTS OR ANTIMETASTATIC AGENTS USING FSTL1 AND COMBINATION DRUG THEREOF” (PHARMA FOODS INTERNATIONAL CO., LTD., priority 2015, published 2018).
Substitutions are numbered along the chain they refer to.

B1: #5-43: chicken-mouse chimeric anti-FSTL1 antibody clone; variable regions SEQ ID NO: 779 (light), 781 (heavy) (antibody, V domains shown)
VH: AVTLDESGGGLQTPGGGLSLVCKGSGFTFSSFNMFWVRQAPGKGLEWVAGIGKDGGTGYGAAVDGRATISKDSGQSTLRLQLNNLRAEDTGTYYCAKAAGGCSYDWCGAYTGDIDTWGHGTEVIVSS
VL: ASTQPSSVSANPGEAVKITCSGGSGSYYGWYQQKSPGSAPVTVIYNNNQRPSDIPSRFSGSKSGSTATLTITGVQAEDEAVYFCGGYDSSTGHGGIFGAGTTLTVL
modifications: mouse constant regions
B2: #6-55: chicken-mouse chimeric anti-FSTL1 antibody clone; variable regions SEQ ID NO: 783 (light), 785 (heavy) (antibody, V domains shown)
VH: AVTLDESGGGLQTPGGALSLVCKGSGFTFTSVTMQWVRQAPGKGLEWVASVCSGSSTYYAPAVKGRATISRDNGQSTVRLQLSNLRPEDTGTYYCAKIAGRARWSCTSAAYNIDAWGHGTEVIVSS
VL: ASTQPSSVSAIPGETVKITCSGGGNNYGWYQQRSPGSAPVTVIYYNDNRPSNIPSRFSGSTSGSTSTLTITGVQADDEAIYYCGSWDSNTDSGIFGAGTTLTVL
modifications: mouse constant regions
B3: #7-34: chicken-mouse chimeric anti-FSTL1 antibody clone; variable regions SEQ ID NO: 787 (light), 789 (heavy) (antibody, V domains shown)
VH: AVTLDESGGGLQTPGGGLSLVCKASGFTFSSVTMQWVRQAPGKGLEWVASICSGSSTYYGPAVKGRATISRDNGQNTVRLQLNNLRAEDTATYYCAKIVGRGRWSCTSAAYNIDAWGHGTEVIVSS
VL: B2 VL with I11N, R33K, D47N, D76E, I80V, W86Y, D87E, S88G, N89S
modifications: mouse constant regions
B4: #5-3: chicken-mouse chimeric anti-FSTL1 antibody clone; variable regions SEQ ID NO: 767 (light), 769 (heavy) (antibody, V domains shown)
VH: B1 VH with G17A, T28S, G56V, T57P, G58K, S73N, L78M, Y94F, A109I, T111A
VL: ASTQPSSVSANPGETVKITCSGGSGYYYGWYQQKSPGSVPVTVIYNNNNRPSDIPSRFSGSKSGSTGTLTITGVRAEDEAVYYCGGYDNSGTGIFGAGTTLTVL
modifications: mouse constant regions
B5: #5-8: chicken-mouse chimeric anti-FSTL1 antibody clone; variable regions SEQ ID NO: 771 (light), 773 (heavy) (antibody, V domains shown)
VH: B1 VH with G56V, T57P, G58K, A61T, S73N, L78M, Y94F, A109I
VL: B1 VL
modifications: mouse constant regions
B6: #8-1: chicken-mouse chimeric anti-FSTL1 antibody clone; variable regions SEQ ID NO: 791 (light), 793 (heavy) (antibody, V domains shown)
VH: B1 VH with G17A, G56V, T57P, G58K, S73N, L78M, Y94F, A109I, T111A
VL: B1 VL with T91S
modifications: mouse constant regions
B7: #8-4: chicken-mouse chimeric anti-FSTL1 antibody clone; variable regions SEQ ID NO: 795 (light), 797 (heavy) (antibody, V domains shown)
VH: B1 VH with F29L, I51V, G58A, K71R, L78V, Y94F, D105S, T111V, I114L, T116A
VL: B4 VL with T3S, V39A, N48D, R50K, R75Q, A76V, Y83F
modifications: mouse constant regions
B8: #5-2: chicken-mouse chimeric anti-FSTL1 antibody clone; variable regions SEQ ID NO: 763 (light), 765 (heavy) (antibody, V domains shown)
VH: B1 VH with I51V, S73N, D105G, A109S, T111V, T116A
VL: B1 VL
modifications: mouse constant regions
B9: #8-7: chicken-mouse chimeric anti-FSTL1 antibody clone; variable regions SEQ ID NO: 799 (light), 801 (heavy) (antibody, V domains shown)
VH: B1 VH with G56V, T57P, G58K, S73N, Y94F, A109I, T111A
VL: B1 VL
modifications: mouse constant regions

What follows are molecules tested on mouse bone marrow cells (assay: Inhibition of induction of mesenchymal stem cells (MSC) by FSTL1 in mouse bone marrow cells (Examples 4, 6, 8, 12)). Conditions: Example 4: 50 ng/mL FSTL1, 10 μg/mL antibody, 11 days; vs control anti-DNP antibody.
Type: cell-based
Method: It is known that when bone marrow cells are stimulated with FSTL1, mesenchymal stem cells (MSCs) having pluripotency or self-proliferative capacity grow (Cancer Research 73: 6185, 2013). Thus, 2×10^7 cells/well of bone marrow cells collected from the thigh bone of a C57BL/6 mouse were suspended in 3 mL/well of RPMI1640 (GIBCO/Thermo Fisher Scientific Inc., Cat. No. C11875500BT) medium containing 2% fetal bovine serum, supplemented with 50 ng/mL (final concentration) of FSTL1 (R&D Systems, Inc. Cat#1694-FN-050) and 10 μg/mL of the anti-FSTL1 antibody (#5-2, […], #5-8, #5-10, #5-43, #6-55, or #7-34) or its isotype mouse IgG (anti-DNP antibody) as a control antibody “Control”, and cultured under stimulation (6-well plate). 11 days thereafter, the number of cells was counted while the cells were stained with a PE-labeled anti-ALCAM antibody (eBioscience, Cat. No. 12-1661-82) and a PE-labeled anti-PDGFRA antibody (eBioscience, Cat#12-1401-81) in order to examine the expression of MSC markers, and the contents of ALCAM-positive cells and PDGFR-positive cells were analyzed by flow cytometry using FACScan (Becton, Dickinson and Company, Code. BECTON-DICKINSON-FACSCAN) to calculate the number of each positive cell per culture.
(§1) Mouse bone marrow cells prepared in the same way as in Example 4 were supplemented with 50 ng/mL (final concentration) of FSTL1 and 10 μg/mL of the anti-FSTL1 antibody (#5-2, #5-3, #5-8, #5-10, #5-43, #6-55, or #7-34) or a control antibody anti-DNP antibody and cultured under stimulation. 11 days thereafter, the number of cells was counted while the cells were stained with a PE-Cy5-labeled anti-CD45 antibody (BD Pharmingen/Becton, Dickinson and Company, Cat. No. 555484), and the content of CD45− negative cells reported to generally contain MSCs at a high rate was analyzed by flow cytometry using FACScan to calculate the percentage and number of MSCs per culture (FIG. 99A).
as §1, with “20” for “50”, “#8-1, #8-4, #8-7, and #8-8)” for “or #7-34)”, “8” for “11”, “antibody,” for “antibody (BD Pharmingen/Becton, Dickinson and Company, Cat. No. 555484),”, “cells” for “cells reported to generally contain MSCs at a high rate”, “100A).” for “99A).”
Mouse bone marrow cells prepared in the same way as in Example 4 were supplemented with 20 ng/mL (final concentration) of FSTL1 and 10 μg/mL of the anti-FSTL1 antibody (#5-2, #5-8, #6-55, […], #8-1, #8-4, #8-7, or #8-8) or a control antibody anti-DNP antibody and cultured under stimulation. 8 days thereafter, the number of cells was counted while the cells were stained with a PE-Cy5-labeled anti-CD45 antibody, and the content of CD45− negative cells was analyzed by flow cytometry using FACScan to calculate the percentage and number of MSCs per culture (FIG. 101).

Molecule	inhibitory activity against the expansion of ALCAM-positive cells and PDGFRA-positive cells by FSTL1
B1	slightly strong tendency of inhibitory activity
B2	slightly strong tendency of inhibitory activity
B3	slightly strong tendency of inhibitory activity

Same assay, conditions: Example 6: 50 ng/mL FSTL1, 10 μg/mL antibody, 11 days; FIG. 99A

Molecule	inhibitory activity against the expansion of CD45-negative cells by FSTL1
B1	higher inhibitory activity and substantially completely inhibited the action of FSTL1
B3	higher inhibitory activity and substantially completely inhibited the action of FSTL1
B4	higher inhibitory activity and substantially completely inhibited the action of FSTL1

Same assay, conditions: Example 8: 20 ng/mL FSTL1, 10 μg/mL antibody, 8 days; FIG. 100A

Molecule	inhibitory activity against the expansion of CD45-negative cells by FSTL1
B1	exhibited inhibitory activity
B2	exhibited inhibitory activity
B5	exhibited inhibitory activity
B6	exhibited inhibitory activity
B7	exhibited inhibitory activity

Same assay, conditions: Example 12: 20 ng/mL FSTL1, 10 μg/mL antibody, 8 days; FIG. 101

Molecule	inhibitory activity against the expansion of CD45-negative cells by FSTL1
B2	higher inhibitory activity was confirmed in the order of #7-34, #5-2, #6-55, and #8-7
B3	higher inhibitory activity was confirmed in the order of #7-34, #5-2, #6-55, and #8-7
B8	higher inhibitory activity was confirmed in the order of #7-34, #5-2, #6-55, and #8-7
B9	higher inhibitory activity was confirmed in the order of #7-34, #5-2, #6-55, and #8-7
